Experimental data as given in the Human Domainome abundance scans (Beltran et al. 2025).
± gives the uncertainty stated by the source.

B1: MEF2-activating motif and SAP domain-containing transcriptional regulator, residues 170 to 204; numbered along this chain, Q6ZN01 (parent)
chain: LKLEELTVSELRQQLRLRGLPVSGTKSMLLERMRG

Variants of: B1
Assay: abundance fitness (aPCA) (normalised: wild type 0, dead -1); higher = more abundant; growth selection in yeast, the domain comes from the species named
Conditions: Homo sapiens

LKLEELTVSELRQQLRLQGLPVSGTKSMLLERMRG and LKLEELTVSELRQQLRLRGFPVSGTKSMLLERMRG are within error of each other in abundance fitness: 0.03 ± 0.24 for the first, -0.329 ± 0.14 for the second.

Compared with LKLEELTHSELRQQLRLRGLPVSGTKSMLLERMRG, LKLEELTVAELRQQLRLRGLPVSGTKSMLLERMRG is higher in abundance fitness: -0.486 ± 0.092 for the first, 0.016 ± 0.054 for the second.

Going from LKLEELTVSELRQQLRLRGLPVSGTKSMLLERMTG to LKLEWLTVSELRQQLRLRGLPVSGTKSMLLERMRG, the abundance fitness falls from -0.045 ± 0.079 to -0.776 ± 0.14.

First: LKLLELTVSELRQQLRLRGLPVSGTKSMLLERMRG
Second: LKLEELTVSELRQQLRLRHLPVSGTKSMLLERMRG
The abundance fitness of the first is lower: -0.919 ± 0.085 for the first, -0.211 ± 0.16 for the second.

LKLEELTVSELRQQLRLVGLPVSGTKSMLLERMRG and LKLERLTVSELRQQLRLRGLPVSGTKSMLLERMRG are within error of each other in abundance fitness: -0.128 ± 0.095 for the first, -0.239 ± 0.084 for the second.

First: LKLEELTVSELRQQLRFRGLPVSGTKSMLLERMRG
Second: LKLELLTVSELRQQLRLRGLPVSGTKSMLLERMRG
The abundance fitness of the first is higher: -0.271 ± 0.15 for the first, -0.548 ± 0.1 for the second.

Compared with LKLAELTVSELRQQLRLRGLPVSGTKSMLLERMRG, LKKEELTVSELRQQLRLRGLPVSGTKSMLLERMRG is higher in abundance fitness: -0.667 ± 0.12 for the first, 0.017 ± 0.11 for the second.

LKLEELTVSELRQQLRCRGLPVSGTKSMLLERMRG and LKDEELTVSELRQQLRLRGLPVSGTKSMLLERMRG are within error of each other in abundance fitness: -0.102 ± 0.16 for the first, -0.098 ± 0.12 for the second.

First: LKLEELTVSELRQQLRLRGLPVSETKSMLLERMRG
Second: LKLEELTVSELRQQLRLRGLPVSRTKSMLLERMRG
The abundance fitness of the first is higher: -0.335 ± 0.084 for the first, -0.867 ± 0.1 for the second.

LKLESLTVSELRQQLRLRGLPVSGTKSMLLERMRG and LKLEELTVSEMRQQLRLRGLPVSGTKSMLLERMRG are within error of each other in abundance fitness: -0.188 ± 0.074 for the first, -0.331 ± 0.32 for the second.

First: LKLCELTVSELRQQLRLRGLPVSGTKSMLLERMRG
Second: LKLEELTVSELRQQLRLRGLPVSGTKSMLLQRMRG
The abundance fitness of the first is lower: -0.518 ± 0.14 for the first, -0.227 ± 0.06 for the second.

Going from LKLEELTVCELRQQLRLRGLPVSGTKSMLLERMRG to LKLEELTVSELRQQLRLRGLPVSGTKSMLLERLRG, the abundance fitness rises from -0.347 ± 0.13 to 0.206 ± 0.1.

LKLEELTVSELRQQLRLRGLPVSGTKSMLLERMRW and LKLEELTVSELRQQQRLRGLPVSGTKSMLLERMRG are within error of each other in abundance fitness: -0.416 ± 0.13 for the first, -0.339 ± 0.096 for the second.

First: LKLEELTVSGLRQQLRLRGLPVSGTKSMLLERMRG
Second: LKLEELTVSELRQQLRLRGLPVSGTKSMLKERMRG
The abundance fitness of the first is lower: -0.509 ± 0.12 for the first, -0.23 ± 0.11 for the second.

Compared with LKLEELTVSELRQQLRLRGLPVSGTKSLLLERMRG, LKLEELTVSELRQQLRLRGLPVWGTKSMLLERMRG is lower in abundance fitness: -0.106 ± 0.058 for the first, -0.883 ± 0.37 for the second.

Compared with LKLEELTVSELRQQLMLRGLPVSGTKSMLLERMRG, LKLEELTVSELRQQLRLRGGPVSGTKSMLLERMRG is lower in abundance fitness: -0.07 ± 0.062 for the first, -0.669 ± 0.067 for the second.

LKLEELTVSELRQNLRLRGLPVSGTKSMLLERMRG and LKLSELTVSELRQQLRLRGLPVSGTKSMLLERMRG are within error of each other in abundance fitness: -0.441 ± 0.14 for the first, -0.23 ± 0.11 for the second.

LKLEELTVSELRQQLRLRGLPVSGTKSMLLERMMG and LKLEELTVGELRQQLRLRGLPVSGTKSMLLERMRG are within error of each other in abundance fitness: -0.416 ± 0.49 for the first, -0.111 ± 0.057 for the second.

LKLEELTVSELRQQLRLRGLPVSGTMSMLLERMRG and LKLEELTVSELRQQLRLRGLPVSGTCSMLLERMRG are within error of each other in abundance fitness: -0.725 ± 0.33 for the first, -0.761 ± 0.15 for the second.

LKLECLTVSELRQQLRLRGLPVSGTKSMLLERMRG and LKLEELTVSELRQQLRLRGLPVSGTKSMLLERCRG are within error of each other in abundance fitness: -0.183 ± 0.18 for the first, -0.235 ± 0.077 for the second.

Compared with LKLEELTVSELRQQLRLRGLPVSGTKSMRLERMRG, LKLEELTVSELRQQLRLRGLPVSGTKSMLLEEMRG is higher in abundance fitness: -0.616 ± 0.072 for the first, -0.219 ± 0.1 for the second.

Compared with LKLEELTVQELRQQLRLRGLPVSGTKSMLLERMRG, LNLEELTVSELRQQLRLRGLPVSGTKSMLLERMRG is lower in abundance fitness: 0.164 ± 0.069 for the first, -0.128 ± 0.17 for the second.

Compared with LKLEELTVSELRQQLRLRGLPVSGTASMLLERMRG, LKLEELTVSELRQQLRLRPLPVSGTKSMLLERMRG is lower in abundance fitness: -0.057 ± 0.064 for the first, -0.558 ± 0.29 for the second.

Compared with LKLEELTVSELRQQLRLRGLPVSGTKSMLLERMIG, LKLEELTVSELRQQWRLRGLPVSGTKSMLLERMRG is lower in abundance fitness: -0.323 ± 0.29 for the first, -1 ± 0.16 for the second.

LKLEELTVSELRQQLRLRGLPVQGTKSMLLERMRG and LKLEELTWSELRQQLRLRGLPVSGTKSMLLERMRG are within error of each other in abundance fitness: -0.147 ± 0.11 for the first, -0.03 ± 0.18 for the second.

First: LKLEELTVSMLRQQLRLRGLPVSGTKSMLLERMRG
Second: LKLEELTVSELRLQLRLRGLPVSGTKSMLLERMRG
The abundance fitness of the first is lower: -0.608 ± 0.11 for the first, -0.174 ± 0.061 for the second.

LSLEELTVSELRQQLRLRGLPVSGTKSMLLERMRG and LKLEELTVSELRQQLRLRGLPVSGTKSMLLERMRF are within error of each other in abundance fitness: -0.201 ± 0.11 for the first, -0.295 ± 0.11 for the second.

LKLEELTVSELRQQLRLRQLPVSGTKSMLLERMRG and LKLEELTVSELRQCLRLRGLPVSGTKSMLLERMRG are within error of each other in abundance fitness: -0.402 ± 0.1 for the first, -0.313 ± 0.11 for the second.

LKLEELTVSELRQQLRLRGLPVVGTKSMLLERMRG and LKLEELTVSELRQQLRLRGLPVSGTQSMLLERMRG are within error of each other in abundance fitness: -0.16 ± 0.092 for the first, -0.221 ± 0.069 for the second.

LKLEELTVSELRQQLRLRFLPVSGTKSMLLERMRG and LKLEELHVSELRQQLRLRGLPVSGTKSMLLERMRG are within error of each other in abundance fitness: -0.639 ± 0.14 for the first, -0.48 ± 0.098 for the second.

LKLEELTVSELRQQLRLRGLPVSGTKSMLLESMRG and LKLEELTVSELMQQLRLRGLPVSGTKSMLLERMRG are within error of each other in abundance fitness: -0.483 ± 0.11 for the first, -0.32 ± 0.13 for the second.

Going from LKLEELTVSELRMQLRLRGLPVSGTKSMLLERMRG to LKLEELTVSELRQQLRLRGLPVSGQKSMLLERMRG, the abundance fitness falls from -0.134 ± 0.097 to -0.441 ± 0.15.

LKLEELTVSELRQQLRLRGLPVSGTKCMLLERMRG and LKLEQLTVSELRQQLRLRGLPVSGTKSMLLERMRG are within error of each other in abundance fitness: -0.455 ± 0.12 for the first, -0.306 ± 0.1 for the second.

LKLEELTVSELRQQLRLRGLPVNGTKSMLLERMRG and LKLEELTVSELRQQLRLTGLPVSGTKSMLLERMRG are within error of each other in abundance fitness: -0.02 ± 0.12 for the first, -0.239 ± 0.12 for the second.

KKLEELTVSELRQQLRLRGLPVSGTKSMLLERMRG and LKGEELTVSELRQQLRLRGLPVSGTKSMLLERMRG are within error of each other in abundance fitness: -0.05 ± 0.22 for the first, -0.304 ± 0.05 for the second.
